Source: publication doi:10.1101/2021.09.21.461191v4

Substrate: OC[C@@H](O)[C@H](O)[C@@H](O)CO
Assay: cells, lysate or membranes
Details: proton symport, membrane voltage -40 mV, external pH 5.5

B1: BvPMT5a (Beta vulgaris subsp. vulgaris) (protein)
chain: MSEGTNKAMSDPPPTTASKVIADFDPLKKPPKRNKFAFACATLASMTSVLLGYDIGVMSGAIIYLKEDWHISDTQIGVLVGILNIYCLFGSFAAGRTSDWIGRRYTIVLAGAIFFVGALLMGFATNYAFLMVGRFVTGIGVGYALMIAPVYTAEVSPASSRGFLTSFPEVFINAGILLGYISNLAFSSLPTHLSWRFMLGIGAIPSIFLAIGVLAMPESPRWLVMQGRLGDAKKVLNRISDSPEEAQLRLSEIKQTAGIPAECDEDIYKVEKTKIKSGNAVWKELFFNPTPAVRRAVIAGIGIHFFQQASGIDAVVLYSPRIFQSAGITNARKQLLATVAVGVVKTLFILVATFQLDKYGRRPLLLTSVGGMIIAILTLAMSLTVIDHSHHKITWAIALCITMVCAVVASFSIGLGPITWVYSSEVFPLRLRAQGTSMGVAVNRVVSGVISIFFLPLSHKITTGGAFFLFGGIAIIAWFFFLTFLPETRGRTLENMHELFEDFRWRESFPGNKSNNDENSTRKQSNGNDKSQVQLGETTTSTTVTNDNH
  Km: 2500 µM
